Assay results taken from patent US5451369A, “Bacteriocidal surfaces and articles with attached bacteriocin” (The State of Oregon Acting By and Through The State Board …, priority 1993, dated 1995).
Where no end group is shown, it is not given here.

Tests used:
[1] = high-potency grade from Aplin and Barrett Ltd.; cited from earlier work
[2] = Nisin adsorption to silicon wafers measured by ellipsometry (hydrophobic, silanized surface); format: physicochemical
Source text: (§1) This example is an investigation of the binding ability of nisin on hydrophilic surfaces and on such surfaces made strongly hydrophobic by silanization. As representative hydrophilic surfaces, we selected monocrystalline silicon because this material is homogeneous, has substantially no pores or surface cavities, and has optical properties amenable to analysis using a laser beam.
(§2) Optically flat, monocrystalline silicon wafers (Wacker Siltronic Corp., Portland, Oreg.) having 1-0-0 orientation and a resistivity of 0.1 to 0.16 ohm.cm were cut into 1×2 cm wafers using a tungsten knife. The wafer surfaces were polished to a mirror finish.
A second quantity of wafers was made hydrophobic by silanization with dichlorodimethylsilane according to Jonsson et al., J. Colloid Interface Sci. 90:148-163 (1982) .
Hydrophilicity and hydrophobicity were confirmed by contact angle analysis according to McGuire, J. Food Eng. 12:239-247 (1990), incorporated herein by reference. In brief, hydrophobicity was determined by measuring the nondispersive component of the work Wa^p required to remove water from a surface, wherein Wa^p is defined according to equation (1) in said McGuire reference. This value was gained using contact-angle methods, and all food-contact surfaces can be analyzed in this way. […] A low value indicates strong hydrophobicity and a high value indicates strong hydrophilicity. […]

[3] = tested on: Pediococcus pentosaceus strain FBB61-2; test: Bioassay of adsorbed nisin: wafers placed face down on seeded MRS agar, inhibition zones; format: cell-based; details: hydrophilic wafers with nisin adsorbed from 0.1 to 1.0 mg/mL solutions, 4° C. 24 hours then 37° C.
Protocol: The activity of adsorbed nisin was evaluated by a bioassay performed as follows: Petri dishes (150×25 mm) containing MRS agar (Difco, Detroit, Mich.) were seeded with 0.1% v/v of a standardized overnight culture of Pediococcus pentosaceus strain FBB61-2 bacteria. Silicon wafers having hydrophilic surfaces were prepared as described above. Such wafers were prepared with and without adsorbed nisin. Wafers were placed face down directly onto the seeded agar surfaces. The Petri dishes were then incubated at 4° C. for 24 hours, then incubated at 37° C.
Referring to FIG. 2, the silicon wafers numbered 1-10 were subjected to adsorption of nisin from 0.1 to 1.0 mg/mL nisin solutions, respectively (in 0.1 mg/mL increments). […] Qualitatively, it can be seen in FIG. 2 that the amount of nisin antimicrobial activity associated with the nisin-coated wafers (as indicated by the diameters of the respective inhibition zones) corresponds to the mass of nisin that actually adsorbed to the respective wafer as shown in FIG. 1; i.e., the smallest inhibition zone corresponded with the smallest adsorbed mass of nisin.

[4] = tested on: gram-positive spoilage and pathogenic bacteria; details: various foods (dairy, meats and others); cited from earlier work
[5] = Nisin adsorption to silicon wafers measured by ellipsometry (hydrophilic surface); format: physicochemical; details: hydrophilic silicon wafer; nisin concentration range 0.1 to 1.0 mg/mL
Source text: as §1, §2
A first quantity of wafers was made hydrophilic by oxidation wherein the wafers were immersed in a mixture of NH4 OH:H2 O2 :H2 O (1:1:5) at 80° C. for 15 minutes. The wafers were then rinsed using distilled deionized water followed by an immersion in HCl:H2 O2 :H2 O (1:1:5) for 15 minutes at 80° C. […]
Hydrophilicity and hydrophobicity were confirmed by contact angle analysis according to McGuire, J. Food Eng. […] In brief, hydrophobicity was determined by measuring the nondispersive component of the work Wa^p required to remove water from a surface, wherein Wa^p is defined according to equation (1) in said McGuire reference. This value was gained using contact-angle methods, and all food-contact surfaces can be analyzed in this way. […]

[6] = tested on: Pediococcus pentosaceus strain FBB61-2; test: Desorption of nisin from wafers by rinsing, followed by agar-well diffusion assay; format: cell-based
Protocol: Nisin was adsorbed to hydrophilic and hydrophobic silicon wafers as described in example 1. We then attempted to desorb nisin from the wafers by placing 50 μL of 0.01M phosphate buffer (pH 6.0) containing 1% polyoxyethylene sorbitan (Tween 80) on each wafer and "agitating" the droplet over the entire wafer surface using a pipette tip. The 50 μL droplet was then transferred to 5.6-mm diameter wells that had been made in seeded agar. As controls, we also attempted to desorb nisin from nisin-coated wafers using the phosphate buffer without Tween 80.
In FIG. 3, the activity of desorbed nisin (from hydrophilic surfaces) is seen as inhibition zones in the agar-well diffusion assay. The amount of recovered nisin roughly corresponded to the relative mass of nisin initially adsorbed to the wafers, similar to the previously described relationships shown in FIGS. 1 and 2. The only exception was the inhibition zone of well 10, wherein the unusually small diameter of the inhibition zone resulted from most of the desorbed nisin being lost during manipulations.
It should be noted that the amount of nisin that became adsorbed onto the wafer surfaces was an amount sufficient for inhibition of susceptible bacteria. Commonly, about 100 Units/g are used in food products to prevent the outgrowth of gram-positive bacterial spores and vegetative cells. […]

[7] = cited from earlier work

Substance	nominal nisin activity [1]	reversal of adsorption in more dilute solution ([2]; hydrophilic and hydrophobic wafers, 12-hour post-adsorption exposure to buffer (FIG. 1 circles))	upper limit (plateau) of adsorbed mass of nisin ([2]; hydrophobic (silanized) silicon wafer, pH 6.0 phosphate buffer, 8 hours contact, consistent with a monolayer)	diameter of inhibition zone around nisin-containing wafers [3]	control of gram-positive bacteria in foods [4]	adsorption plateau on hydrophilic surface [5]	desorption by rinsing with phosphate buffer without Tween 80 ([6]; 0.01M phosphate buffer pH 6.0, no Tween 80)	desorption by phosphate buffer containing Tween 80 ([6]; 0.01M phosphate buffer pH 6.0 with 1% Tween 80)	period of retained bacteriocidal activity ([7]; ambient temperatures (0°-40° C.))	stability of activity at pH 11 ([7]; pH 11)	potency of purified dry powder on storage ([7]; refrigeration storage)
nisin (ITSISLCTPGCKTGALMGCNMKTATCHCSIHVSK; ends and bridges not checked; also: five thioether crosslinks (ring bridges), places not given here; UniProt P13068 24-57, looked up)	45.5×10^6 Units/g	does not appear to reverse	about 0.36 mg/cm^2	generally proportional to the log10 concentration of the nisin solution	effective in preserving these foods	did not attain a plateau value	resistant to desorption	able to desorb nisin	16-24 months	can be lost rapidly	retains its potency indefinitely
Pediocin AcH (KYYGNGVTCGKHSCSVDWGKATTCIINNGAMAWATGGHQGNHKC; ends and bridges not checked; cysteine pairing not given here; UniProt P29430 19-62, looked up) [wide-spectrum bacteriocin produced by lactic-acid bacteria, first identified in 1984]	–	–	–	–	efficacious in controlling a wide range of spoilage and pathogenic gram-positive bacteria	–	–	–	–	–	–
Pediocin PA1 (KYYGNGVTCGKHSCSVDWGKATTCIINNGAMAWATGGHQGNHKC; ends and bridges not checked; cysteine pairing not given here; UniProt P29430 19-62, looked up) [wide-spectrum bacteriocin produced by lactic-acid bacteria]	–	–	–	–	found to control gram-positive bacterial populations	–	–	–	–	–	–
